Test results published in patent US20130331317A1 (NEW YORK UNIVERSITY, published 2013).

How the values were obtained:
[1] = molecular target: binary complex of FGFR1c ligand-binding domain with murine αKlotho ectodomain (murine;human) (UniProt O35082); assay: SPR
[2] = molecular target: T1, ligand-binding domain of human FGFR1c (D142 to R365) (human, UniProt P11362 142-365); assay: SPR
T1 chain: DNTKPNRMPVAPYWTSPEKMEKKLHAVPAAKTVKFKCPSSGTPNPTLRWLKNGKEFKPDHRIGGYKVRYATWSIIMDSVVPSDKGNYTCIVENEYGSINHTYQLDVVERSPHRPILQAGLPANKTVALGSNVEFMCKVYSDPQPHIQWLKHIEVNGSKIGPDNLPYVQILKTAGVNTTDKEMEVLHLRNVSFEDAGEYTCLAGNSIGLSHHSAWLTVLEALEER

[3] = molecular target: T2, binary complex of FGFR1c ligand-binding domain with murine βKlotho ectodomain (murine; human, UniProt P11362 142-365); assay: SPR competition; FGF21 in solution mixed with βKlotho-FGFR1c complex, passed over immobilised FGF21
T2 construct: range 142-365; also called βKlotho-FGFR1c complex; βKlotho-FGFR1c; not shown: C-terminal FLAG tag
T2 sequence 1: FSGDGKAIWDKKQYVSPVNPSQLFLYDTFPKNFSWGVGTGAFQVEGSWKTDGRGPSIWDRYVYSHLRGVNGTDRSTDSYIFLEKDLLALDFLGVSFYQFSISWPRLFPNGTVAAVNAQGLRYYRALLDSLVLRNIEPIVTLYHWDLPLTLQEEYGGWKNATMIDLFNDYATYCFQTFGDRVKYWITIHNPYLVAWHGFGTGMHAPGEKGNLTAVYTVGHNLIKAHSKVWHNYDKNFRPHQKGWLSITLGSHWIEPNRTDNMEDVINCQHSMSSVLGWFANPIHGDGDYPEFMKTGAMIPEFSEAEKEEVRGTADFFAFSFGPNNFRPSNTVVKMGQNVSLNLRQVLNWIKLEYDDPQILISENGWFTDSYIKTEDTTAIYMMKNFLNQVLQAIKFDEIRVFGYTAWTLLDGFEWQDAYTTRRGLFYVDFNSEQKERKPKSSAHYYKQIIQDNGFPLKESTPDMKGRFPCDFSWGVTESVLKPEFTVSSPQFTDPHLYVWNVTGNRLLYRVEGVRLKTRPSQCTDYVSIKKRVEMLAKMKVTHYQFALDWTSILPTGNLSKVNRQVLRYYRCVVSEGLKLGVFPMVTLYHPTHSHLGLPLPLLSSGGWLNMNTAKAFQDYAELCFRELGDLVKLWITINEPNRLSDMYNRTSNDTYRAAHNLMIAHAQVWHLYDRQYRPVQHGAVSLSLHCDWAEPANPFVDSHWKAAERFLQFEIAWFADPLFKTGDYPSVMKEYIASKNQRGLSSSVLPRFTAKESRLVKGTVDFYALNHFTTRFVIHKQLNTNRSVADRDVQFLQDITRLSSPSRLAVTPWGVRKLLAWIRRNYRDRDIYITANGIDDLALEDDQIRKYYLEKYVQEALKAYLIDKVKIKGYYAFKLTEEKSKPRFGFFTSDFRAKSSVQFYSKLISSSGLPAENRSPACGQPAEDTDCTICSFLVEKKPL
T2 sequence 2: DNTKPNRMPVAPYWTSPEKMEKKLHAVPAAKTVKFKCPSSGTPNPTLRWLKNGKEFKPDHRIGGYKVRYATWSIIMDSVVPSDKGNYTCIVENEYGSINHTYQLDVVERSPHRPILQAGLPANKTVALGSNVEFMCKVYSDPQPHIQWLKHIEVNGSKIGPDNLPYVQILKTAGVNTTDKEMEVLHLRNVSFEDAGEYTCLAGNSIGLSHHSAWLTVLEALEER
Excerpt: To this end, a SPR-based binding competition assay was employed. FGF23 was immobilized onto a SPR biosensor chip, and mixtures of a fixed concentration of binary αKlotho-FGFR1c complex with increasing concentrations of FGF2^ΔHBScore-FGF23^C-tail chimera were passed over the chip. […] To test whether the FGF2^ΔHBScore-FGF21^C-tail chimera can likewise form a ternary complex with FGFR1c and βKlotho, FGF21 was coupled to a SPR biosensor chip, and mixtures of the binary βKlotho-FGFR1c complex with FGF2^ΔHBScore-FGF21^C-tail were passed over the chip. […] To further confirm the binding specificity of the FGF2^ΔHBScore-FGF23^C-tail chimera for the αKlotho-FGFR1c complex, FGF2^ΔHBScore-FGF23^C-tail and βKlotho-FGFR1c complex were mixed at a molar ratio of 10:1, and the mixture was injected over a chip containing immobilized FGF21. […] For the FGF2^ΔHBScore-FGF21^C-tail chimera, we investigated whether it is able to activate FGFR1c in a βKlotho-dependent fashion in cells. HEK293 cells were transfected with βKlotho and then stimulated with FGF2^ΔHBScore-FGF21^C-tail or FGF21.

[4] = molecular target: T3, ligand-binding domain of human FGFR1c (D142 to R365) (human, UniProt P11362 142-365); assay: SPR; increasing concentrations of FGFR1c ligand-binding domain passed over immobilised FGF21
T3 construct: range 142-365
T3 sequence (looked up): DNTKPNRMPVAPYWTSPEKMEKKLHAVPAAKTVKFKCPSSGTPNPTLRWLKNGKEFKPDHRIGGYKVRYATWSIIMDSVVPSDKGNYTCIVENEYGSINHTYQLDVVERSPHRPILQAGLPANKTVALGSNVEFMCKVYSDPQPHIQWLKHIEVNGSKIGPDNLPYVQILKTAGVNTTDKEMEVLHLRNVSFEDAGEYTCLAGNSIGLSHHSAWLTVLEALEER
Excerpt: (§1) FIGS. 10A-10D show overlays of SPR sensorgrams illustrating binding of FGFR1c to FGF2 (FIG. 10A), FGF19 (FIG. 10B), FGF21 (FIG. 10C), and FGF23 (FIG. 10D), and fitted saturation binding curves. Increasing concentrations of FGFR1c ligand-binding domain were passed over a biosensor chip containing immobilized FGF2, FGF19, FGF21, or FGF23. […] Increasing concentrations of αKlotho-FGFR1c complex were passed over a biosensor chip containing immobilized FGF23. […] FGF23^C-tail was immobilized on a biosensor chip and increasing concentrations of FGFR1c ligand-binding domain were passed over the chip. Dissociation constants (KDs) given in FIGS. 10A-10E were derived from the saturation binding curves.
(§2) Surface plasmon resonance (SPR) experiments were performed on a Biacore 2000 instrument (Biacore AB), and the interactions were studied at 25° C. in HBS-EP buffer (10 mM HEPES-NaOH, pH 7.4, 150 mM NaCl, 3 mM EDTA, 0.005% (v/v) polysorbate 20). To study endocrine FGF-heparin interactions, a heparin chip was prepared by immobilizing biotinylated heparin (Sigma-Aldrich) on flow channels of a research-grade streptavidin chip (Biacore AB). The coupling density was ˜5 fmol mm⁻² of flow channel. To measure binding of chimeric FGF2 proteins to heparin, biotinylated heparin was coupled to a streptavidin chip at an approximately 4-fold lower density as judged based on the binding responses obtained for FGF1. […]

[5] = molecular target: T3, ligand-binding domain of human FGFR1c …; assay: SPR; increasing concentrations of FGFR1c ligand-binding domain passed over immobilised FGF23
Excerpt: as §1, §2

[6] = molecular target: T4, binary complex of FGFR1c ligand-binding domain with murine αKlotho ectodomain (murine; human, UniProt O35082 35-982; P11362 142-365); assay: SPR; FGFR1c ligand-binding domain or αKlotho-FGFR1c complex passed over immobilised FGF23 (FIGS. 10D and 10E)
T4 construct: range 35-982;range 142-365; αKlotho ectodomain was expressed in HEK293 cells; also called αKlotho-FGFR1c complex; αKlotho-FGFR1c; not shown: C-terminal FLAG tag
T4 sequence (looked up) 1: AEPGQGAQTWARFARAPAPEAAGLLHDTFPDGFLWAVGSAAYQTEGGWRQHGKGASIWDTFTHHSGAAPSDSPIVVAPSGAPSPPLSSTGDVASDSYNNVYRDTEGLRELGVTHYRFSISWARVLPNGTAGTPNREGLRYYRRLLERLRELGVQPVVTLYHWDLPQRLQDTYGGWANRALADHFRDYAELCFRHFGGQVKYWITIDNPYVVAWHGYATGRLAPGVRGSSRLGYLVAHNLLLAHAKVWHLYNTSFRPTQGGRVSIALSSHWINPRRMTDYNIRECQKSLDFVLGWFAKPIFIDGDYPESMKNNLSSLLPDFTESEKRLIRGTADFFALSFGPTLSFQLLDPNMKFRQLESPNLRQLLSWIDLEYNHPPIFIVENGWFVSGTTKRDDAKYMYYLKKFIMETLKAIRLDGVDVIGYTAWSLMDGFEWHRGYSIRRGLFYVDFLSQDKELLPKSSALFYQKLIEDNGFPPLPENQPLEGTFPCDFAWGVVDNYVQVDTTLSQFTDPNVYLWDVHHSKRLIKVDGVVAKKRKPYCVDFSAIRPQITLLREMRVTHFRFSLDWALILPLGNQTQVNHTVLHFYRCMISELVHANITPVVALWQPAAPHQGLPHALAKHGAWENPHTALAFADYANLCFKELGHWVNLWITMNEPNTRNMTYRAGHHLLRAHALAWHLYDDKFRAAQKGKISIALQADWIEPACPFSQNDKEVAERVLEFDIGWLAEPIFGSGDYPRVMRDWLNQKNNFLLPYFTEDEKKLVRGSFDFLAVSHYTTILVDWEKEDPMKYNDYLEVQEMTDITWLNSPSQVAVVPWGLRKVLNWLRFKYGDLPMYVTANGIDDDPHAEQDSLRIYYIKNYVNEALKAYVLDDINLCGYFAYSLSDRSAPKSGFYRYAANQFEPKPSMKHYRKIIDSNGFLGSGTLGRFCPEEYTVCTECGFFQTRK
T4 sequence (looked up) 2: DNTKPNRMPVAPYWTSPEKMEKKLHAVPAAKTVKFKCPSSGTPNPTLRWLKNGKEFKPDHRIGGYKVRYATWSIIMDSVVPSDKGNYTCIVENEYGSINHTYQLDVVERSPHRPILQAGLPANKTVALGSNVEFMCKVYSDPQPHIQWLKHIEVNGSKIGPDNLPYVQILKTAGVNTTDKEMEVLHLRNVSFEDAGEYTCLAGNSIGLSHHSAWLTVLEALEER
Excerpt: as §1, §2

[7] = molecular target: T3, ligand-binding domain of human FGFR1c …; assay: SPR; FGF23^C-tail immobilised on the chip, increasing concentrations of FGFR1c ligand-binding domain passed over it
Excerpt: as §1, §2

Work on “human FGF23 (Y25 to I251), N-terminally hexahistidine-tagged mature form, with R176Q/R179Q (from UniProt Q9GZV9 25-251)” yielded a Kd [1] of 27.4 nM.

B1: human FGF21 (H29 to S209), N-terminally hexahistidine-tagged mature form (ligand)
chain: HPIPDSSPLLQFGGQVRQRYLYTDDAQQTEAHLEIREDGTVGGAADQSPESLLQLKALKPGVIQILGVKTSRFLCQRPDGALYGSLHFDPEACSFRELLLEDGYNVYQSEAHGLPLHLPGNKSPHRDPAPRGPARFLPLPGLPPALPEPPGILAPQPPDVGSSDPLSMVGPSQGRSPSYAS
notes: also called native FGF21; not shown: N-terminal hexahistidine tag
B1 was tested, and the Kd [2] was 2520 nM, the binding result [3] was “binds” and the binding result [4] was “binds”.

B2: human FGF23 (Y25 to I251), N-terminally hexahistidine-tagged mature form, with R176Q/R179Q (ligand)
chain: YPNASPLLGSSWGGLIHLYTATARNSYHLQIHKNGHVDGAPHQTIYSALMIRSEDAGFVVITGVMSRRYLCMDFRGNIFGSHYFDPENCRFQHQTLENGYDVYHSPQYHFLVSLGRAKRAFLPGMNPPPYSQFLSRRNEIPLIHFNTPIPRQHTQSAEDDSERDPLNVLKPRARMTPAPASCSQELPSAEDNSPMASDPLGVVRGGRVNTHAGGTGPEGCRPFAKFI
notes: also called native FGF23; wild-type FGF23; not shown: N-terminal hexahistidine tag
B2 was tested, and the Kd [2] was 648 nM, the binding result [5] was “binds” and the “fold enhancement of affinity (αKlotho-FGFR1c complex against FGFR1c alone)” value [6] was greater than 20 fold.

B3: N-terminally hexahistidine-tagged C-terminal tail peptide of FGF23 (S180 to I251) (peptide)
peptide: SAEDDSERDPLNVLKPRARMTPAPASCSQELPSAEDNSPMASDPLGVVRGGRVNTHAGGTGPEGCRPFAKFI
notes: also called FGF23^C-tail; not shown: N-terminal hexahistidine tag
B3: no binding [7].
